# Data from publication PMC4192513 (2014).
# B1: Bud13p (residues 201-266) (domain or fragment)
# chain: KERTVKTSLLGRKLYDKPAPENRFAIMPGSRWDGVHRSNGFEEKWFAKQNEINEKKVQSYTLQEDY
# Columns and labels:
# [1] = biological target: T1, Snu17p (residues 1-113) (S. cerevisiae, UniProt P40565 1-113); test: ITC
# T1 chain: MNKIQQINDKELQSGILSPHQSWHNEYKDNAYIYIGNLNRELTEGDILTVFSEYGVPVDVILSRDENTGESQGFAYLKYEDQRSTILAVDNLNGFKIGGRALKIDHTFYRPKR
# [2] = biological target: T1, Snu17p (residues 1-113); test: ITC; second site (KD2)
# [3] = biological target: T1, Snu17p (residues 1-113); test: ITC; first site (KD1)
Binder,Kd [1] [nM],Kd [2] [nM],Kd [3] [nM]
ENRFAIMPGSRWDGVHRSNGFE [Bud13p peptide (residues 221-242)],253,–,–
AIMPGSRWDGVHRS [Bud13p peptide (residues 225-238)],~60000,–,–
B1,–,234,6.3
